Assay [1] deals with hMC3-R (human) (UniProt P41968). The assay can be described thus: cell-based or functional assay.
Assay [2] addresses hMC5-R (human) (UniProt P33032). The assay can be described thus: cell-based or functional assay.
In assay [3] the target is hMC1-R (human) (UniProt Q01726). The assay can be described thus: cell-based or functional assay.
The target of assay [4] is hMC4-R (human) (UniProt P32245). Put plainly: cell-based or functional assay.
The target of assay [5] is hMC3-R (human) (UniProt P41968). Put plainly: competition with [125I]-NDP-α-MSH, CHO-K1 membranes.
The target of assay [6] is hMC5-R (human) (UniProt P33032). Described as above.
Assay [7] has as its target hMC1-R (human) (UniProt Q01726). The assay is described as above.
Assay [8] has as its target hMC4-R (human) (UniProt P32245). The assay is described as above.
Assay [9] deals with hMC1-R (human) (UniProt Q01726). Put plainly: ratio Ki hMC1-R / Ki hMC4-R, same assay.
Assay [10] deals with human melanocortin receptor subtype 5 (hMC5-R) (human), P33032. The assay can be described thus: [125I]-NDP-α-MSH competition, membranes.
Assay [11] has as its target human melanocortin receptor subtype 1 (hMC1-R) (human), Q01726. Put plainly: [125I]-NDP-α-MSH competition, membranes.
The target in assay [12] is human melanocortin receptor subtype 4 (hMC4-R) (human), P32245. The assay can be described thus: [125I]-NDP-α-MSH competition, membranes.

Bridge positions count the residues as written; N and C are the ends. Square brackets hold non-standard residues; d marks the D form. Ends that are not written are not given here. Bip = N[C@@H](Cc1ccc(-c2ccccc2)cc1)C(=O)O; 2Nal = N[C@@H](Cc1ccc2ccccc2c1)C(=O)O; d2Nal = N[C@H](Cc1ccc2ccccc2c1)C(=O)O; Bta = N[C@@H](Cc1csc2ccccc12)C(=O)O; hArg = N=C(N)NCCCC[C@H](N)C(=O)O; Pen = CC(C)(S)[C@H](N)C(=O)O; Nle = CCCC[C@H](N)C(=O)O; Aib = CC(C)(N)C(=O)O; Ava = NCCCCC(=O)O; GABA = NCCCC(=O)O; βAla = NCCC(=O)O Where only a bound is given, the exact number is not on record here.

Sequence of hMC4-R (human) (P32245 whole entry): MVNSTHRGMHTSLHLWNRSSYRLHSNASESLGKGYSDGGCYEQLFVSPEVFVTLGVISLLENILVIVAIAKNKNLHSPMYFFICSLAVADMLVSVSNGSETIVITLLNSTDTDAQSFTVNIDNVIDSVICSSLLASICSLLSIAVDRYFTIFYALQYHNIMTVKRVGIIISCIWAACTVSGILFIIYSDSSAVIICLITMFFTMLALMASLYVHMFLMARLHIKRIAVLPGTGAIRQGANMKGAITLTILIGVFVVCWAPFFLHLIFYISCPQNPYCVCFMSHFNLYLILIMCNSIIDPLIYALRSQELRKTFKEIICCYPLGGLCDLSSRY
Sequence of hMC3-R (human) (P41968 whole entry): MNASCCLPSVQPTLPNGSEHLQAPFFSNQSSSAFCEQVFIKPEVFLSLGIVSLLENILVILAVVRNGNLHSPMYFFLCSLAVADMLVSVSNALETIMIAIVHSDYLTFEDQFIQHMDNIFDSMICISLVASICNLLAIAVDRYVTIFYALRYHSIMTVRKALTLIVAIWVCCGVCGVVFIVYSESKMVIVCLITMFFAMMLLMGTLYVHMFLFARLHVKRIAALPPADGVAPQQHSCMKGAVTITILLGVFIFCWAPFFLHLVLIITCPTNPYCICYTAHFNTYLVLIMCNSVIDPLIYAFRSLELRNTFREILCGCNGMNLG
Sequence of hMC1-R (human) (Q01726 whole entry): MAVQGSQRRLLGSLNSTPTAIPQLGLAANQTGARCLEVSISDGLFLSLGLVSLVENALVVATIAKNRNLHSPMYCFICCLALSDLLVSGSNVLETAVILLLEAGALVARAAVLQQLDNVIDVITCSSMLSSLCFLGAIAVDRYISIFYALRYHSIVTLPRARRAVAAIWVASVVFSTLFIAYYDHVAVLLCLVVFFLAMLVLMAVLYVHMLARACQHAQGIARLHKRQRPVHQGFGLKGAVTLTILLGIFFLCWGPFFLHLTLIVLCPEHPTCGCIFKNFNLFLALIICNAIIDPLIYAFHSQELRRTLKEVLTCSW
Sequence of hMC5-R (human) (P33032 whole entry): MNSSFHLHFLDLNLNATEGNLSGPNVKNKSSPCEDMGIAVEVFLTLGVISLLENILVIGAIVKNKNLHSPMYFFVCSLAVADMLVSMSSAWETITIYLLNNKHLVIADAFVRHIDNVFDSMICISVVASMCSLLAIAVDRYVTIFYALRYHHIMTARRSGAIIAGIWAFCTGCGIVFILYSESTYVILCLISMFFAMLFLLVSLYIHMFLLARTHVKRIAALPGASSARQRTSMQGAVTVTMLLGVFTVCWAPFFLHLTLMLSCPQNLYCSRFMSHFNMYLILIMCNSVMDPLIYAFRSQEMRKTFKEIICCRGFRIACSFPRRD
Sequence of human melanocortin receptor subtype 4 (hMC4-R) (human), P32245 (P32245 whole entry): as the sequence (P32245 whole entry) above
Sequence of human melanocortin receptor subtype 1 (hMC1-R) (human), Q01726 (Q01726 whole entry): as the sequence (Q01726 whole entry) above
Sequence of human melanocortin receptor subtype 5 (hMC5-R) (human), P33032 (P33032 whole entry): as the sequence (P33032 whole entry) above

B1: Ac-Nle-c(Cys-D-Leu-His-D-Phe-Arg-Trp-Cys)-NH2 (peptide)
peptide: Ac-[Nle]C[dL]H[dF]RWC-NH2
modifications: disulfide 2-8
SMILES: CCCC[C@H](NC(C)=O)C(=O)N[C@H]1CSSC[C@@H](C(N)=O)NC(=O)[C@H](Cc2c[nH]c3ccccc23)NC(=O)[C@H](CCCNC(=N)N)NC(=O)[C@@H](Cc2ccccc2)NC(=O)[C@H](Cc2c[nH]cn2)NC(=O)[C@@H](CC(C)C)NC1=O
On to B1, for which the cAMP EC50 in assay [1] is 0.465 nM; in assay [2], 78.5 nM; in [3], 3.24 nM; in assay [4], 0.0915 nM.

B2: Nle-c(Cys-His-D-Phe-Arg-Trp-Apn-Cys)-NH2 (peptide)
peptide: [Nle]CH[dF]RW[Ava]C-NH2
modifications: disulfide 2-8; N-terminus assumed
SMILES: CCCC[C@H](N)C(=O)N[C@H]1CSSC[C@@H](C(N)=O)NC(=O)CCCCNC(=O)[C@H](Cc2c[nH]c3ccccc23)NC(=O)[C@H](CCCNC(=N)N)NC(=O)[C@@H](Cc2ccccc2)NC(=O)[C@H](Cc2c[nH]cn2)NC1=O
For B2, the cAMP EC50 stood at 0.27 nM in assay [1], 3.1 nM in assay [2], 0.31 nM in [3] and 0.018 nM in assay [4].

B3: Nle-c(Cys-His-D-Phe-Arg-Trp-Gaba-Cys)-NH2 (peptide)
peptide: [Nle]CH[dF]RW[GABA]C-NH2
modifications: disulfide 2-8
Take B3: the cAMP EC50 in assay [1] was found to be 0.1 nM; in [2], 1.7 nM; in assay [3] it was 0.37 nM; in assay [4], 0.021 nM.

B4: D-Phe-c(Cys-His-D-Phe-hArg-Trp-β-Ala-D-Cys)-Thr-NH2 (peptide)
peptide: [dF]CH[dF][hArg]W[βAla][dC]T-NH2
modifications: disulfide 2-8; N-terminus assumed
SMILES: C[C@@H](O)[C@H](NC(=O)[C@H]1CSSC[C@H](NC(=O)[C@H](N)Cc2ccccc2)C(=O)N[C@@H](Cc2c[nH]cn2)C(=O)N[C@H](Cc2ccccc2)C(=O)N[C@@H](CCCCNC(=N)N)C(=O)N[C@@H](Cc2c[nH]c3ccccc23)C(=O)NCCC(=O)N1)C(N)=O
Usually Ki stands for the equilibrium dissociation constant of an inhibitor or competing ligand from its target. The low end stands for a stronger hold on the target, the high end for a looser hold on the target. As to B4, the Ki in assay [5] came out at 123 nM; in assay [6], 521 nM; in assay [7], 0.442 nM; in [8] it was 10.3 nM. Besides, the Ki hMC1-R/MC4-R in assay [9] was 0.04.

B5: D-Phe-c(Cys-His-D-Phe-Arg-Bip-β-Ala-D-Cys)-Thr-NH2 (peptide)
peptide: [dF]CH[dF]R[Bip][βAla][dC]T-NH2
modifications: disulfide 2-8; N-terminus assumed
SMILES: C[C@@H](O)[C@H](NC(=O)[C@H]1CSSC[C@H](NC(=O)[C@H](N)Cc2ccccc2)C(=O)N[C@@H](Cc2c[nH]cn2)C(=O)N[C@H](Cc2ccccc2)C(=O)N[C@@H](CCCNC(=N)N)C(=O)N[C@@H](Cc2ccc(-c3ccccc3)cc2)C(=O)NCCC(=O)N1)C(N)=O
Turning to B5, the Ki in assay [5] was determined as 3370 nM; in assay [6] it was 1130 nM; in [7], 5.8 nM; in assay [8], 583 nM. Moreover, the Ki hMC1-R/MC4-R in assay [9] stood at 0.01.

B6: Ac-Nle-c(Asp-D-Ala-His-D-Phe-Arg-Bal-Lys)-NH2 (peptide)
peptide: Ac-[Nle]D[dA]H[dF]R[Bta]K-NH2
modifications: lactam 2-8
SMILES: CCCC[C@H](NC(C)=O)C(=O)N[C@H]1CC(=O)NCCCC[C@@H](C(N)=O)NC(=O)[C@H](Cc2csc3ccccc23)NC(=O)[C@H](CCCNC(=N)N)NC(=O)[C@@H](Cc2ccccc2)NC(=O)[C@H](Cc2c[nH]cn2)NC(=O)[C@@H](C)NC1=O
Take B6: the cAMP EC50 was 3.22 nM in [1], greater than 10000 nM in [2], 0.931 nM in assay [3] and 1.65 nM in [4].

B7: D-Phe-c(Cys-His-D-(Et)Tyr-hArg-Trp-β-Ala-D-Cys)-Thr-NH2 (peptide)
peptide: [dF]CH[d(Et)Tyr][hArg]W[βAla][dC]T-NH2
modifications: disulfide 2-8
With B7, the cAMP EC50 was 2.71 nM in assay [1], 2.38 nM in assay [2], 0.345 nM in assay [3] and 5380 nM in assay [4].

B8: Ac-Tyr-Arg-c(Cys-D-Ala-His-D-Phe-Arg-Trp-Cys)-NH2 (peptide)
peptide: Ac-YRC[dA]H[dF]RWC-NH2
modifications: disulfide 3-9
Molecule B8 had a Ki in [10] of 714 nM. In other words, the sub-micromolar range.

B9: Hydantoin(C(O)-(Arg-Gly))-c(Cys-D-Ala-His-D-2-Nal-Arg-Trp-Cys)-NH2 (peptide)
peptide: RGCAHXRWC
modifications: residues 1-2 joined in a hydantoin ring (C(O)); D-Ala4; X6=D-2-Nal; Cys3-Cys9 disulfide; C-terminal amide
Regarding B9, the cAMP EC50 worked out at 13.1 nM in assay [1], 103 nM in [2], 96.6 nM in [3] and 21.2 nM in assay [4].

B10: Ac-Nle-c(Cys-His-D-Phe-Arg-Trp-Gaba-Pen)-NH2 (peptide)
peptide: Ac-[Nle]CH[dF]RW[GABA][Pen]-NH2
modifications: disulfide 2-8
Take B10: the cAMP EC50 in [1] worked out at 0.24 nM; in [2], 3.9 nM; in [3], 0.28 nM; in assay [4] it was 0.028 nM.

B11: c[Hydantoin(C(O)-(Gly-Cys))-Glu-His-D-Phe-Arg-Trp-Cys]-NH2 (peptide)
peptide: GCEH[dF]RWC-NH2
modifications: disulfide 2-8; also: residues 1-2 joined in a hydantoin ring (C(O))
As to B11, the cAMP EC50 in [1] turned out to be 21.8 nM; in [2], 1780 nM; in assay [3] it was 14.5 nM; in [4] it was 0.576 nM.

B12: c[Hydantoin(C(O)-(Ile-Cys))-D-Ala-His-D-Phe-Arg-Trp-Cys]-NH2 (peptide)
peptide: IC[dA]H[dF]RWC-NH2
modifications: disulfide 2-8; also: hydantoin ring from C(O) with Ile1-Cys2
As for B12, the Ki was 53.4 nM in [11] and 41.6 nM in [12].

B13: Ac-Nle-c(Cys-His-D-Phe-Arg-Trp-Apn-Cys)-NH2 (peptide)
peptide: Ac-[Nle]CH[dF]RW[Ava]C-NH2
modifications: disulfide 2-8
SMILES: CCCC[C@H](NC(C)=O)C(=O)N[C@H]1CSSC[C@@H](C(N)=O)NC(=O)CCCCNC(=O)[C@H](Cc2c[nH]c3ccccc23)NC(=O)[C@H](CCCNC(=N)N)NC(=O)[C@@H](Cc2ccccc2)NC(=O)[C@H](Cc2c[nH]cn2)NC1=O
Regarding B13, the cAMP EC50 in assay [1] was found to be 0.199 nM; in [2], 1.73 nM; in [3] it was 0.76 nM; in assay [4], 0.0492 nM.

B14: Ac-c(Cys-Glu-His-D-2-Nal-Arg-2-Nal-Aib-Cys)-Pro-Pro-Lys-Asp-NH2 (peptide)
peptide: Ac-CEH[d2Nal]R[2Nal][Aib]CPPKD-NH2
modifications: disulfide 1-8
SMILES: CC(=O)N[C@H]1CSSC[C@@H](C(=O)N2CCC[C@H]2C(=O)N2CCC[C@H]2C(=O)N[C@@H](CCCCN)C(=O)N[C@@H](CC(=O)O)C(N)=O)NC(=O)C(C)(C)NC(=O)[C@H](Cc2ccc3ccccc3c2)NC(=O)[C@H](CCCNC(=N)N)NC(=O)[C@@H](Cc2ccc3ccccc3c2)NC(=O)[C@H](Cc2c[nH]cn2)NC(=O)[C@H](CCC(=O)O)NC1=O
In the case of B14, the cAMP Kb stood at 221 in [1] and 4.52 in assay [4]. Also, the cAMP EC50 in assay [2] was 869 nM; in [3], 770.

B15: D-Phe-c(Cys-His-D-(Et)Tyr-hArg-Bip-β-Ala-D-Cys)-Thr-NH2 (peptide)
peptide: [dF]CH[d(Et)Tyr][hArg][Bip][βAla][dC]T-NH2
modifications: disulfide 2-8
For the molecule B15, the cAMP EC50 stood at 81.8 nM in assay [1], 31.8 nM in assay [2], 0.685 nM in assay [3] and 86.9 nM in assay [4].

B16: D-Phe-c(Cys-His-D-(Et)Tyr-Arg-Trp-β-Ala-D-Cys)-Thr-NH2 (peptide)
peptide: [dF]CH[d(Et)Tyr]RW[βAla][dC]T-NH2
modifications: disulfide 2-8
Regarding B16, the cAMP EC50 in [1] was found to be 1.1 nM; in [2], 0.37 nM; in assay [3], 0.35 nM; in assay [4] it was 0.11 nM.

The values above are taken from patent publication US20120135923A1, “Use of Melanocortins to Treat Dyslipidemia” (IPSEN PHARMA, S.A.S., priority 2009, published 2012).
